# Laboratory results: US20060193821, “Aptamers to the human IL-12 cytokine family and their use as autoimmune disease therapeutics” (published 2006)
# T1: IL-23 (mouse, p19/p40 heterodimer) (Mus musculus, UniProt Q9EQ14;P43432 SEQ:22-196,SEQ:23-335)
# T1 sequence 1: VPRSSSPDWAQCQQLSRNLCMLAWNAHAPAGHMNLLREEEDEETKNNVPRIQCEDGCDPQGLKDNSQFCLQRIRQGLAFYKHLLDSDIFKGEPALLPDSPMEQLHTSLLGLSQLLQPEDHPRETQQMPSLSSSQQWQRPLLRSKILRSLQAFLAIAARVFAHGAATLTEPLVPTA
# T1 sequence 2: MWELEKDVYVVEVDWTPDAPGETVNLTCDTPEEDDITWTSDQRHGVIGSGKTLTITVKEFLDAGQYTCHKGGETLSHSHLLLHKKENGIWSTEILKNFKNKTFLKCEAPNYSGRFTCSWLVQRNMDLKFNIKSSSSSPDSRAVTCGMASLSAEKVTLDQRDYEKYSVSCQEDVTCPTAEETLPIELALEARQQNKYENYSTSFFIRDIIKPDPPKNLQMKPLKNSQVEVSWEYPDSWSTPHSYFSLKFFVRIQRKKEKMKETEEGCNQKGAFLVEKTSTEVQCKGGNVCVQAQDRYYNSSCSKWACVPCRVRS
# B1: ARC1625 (mixed)
# RNA: ACAGGCAAGUAAUUGGGGAGUGCGGGCGGGGUGU
# modifications: 2'-OMe C,U and G16,G17,G24,G25,G30,G31; other A,G deoxy; PS 32-33; 3'-idT [2'-OMe C2,C6,U10,U13,U14,G16,G17,U21,C23,G24,G25,C27,G30,G31,U32,U34; other A,G deoxy; PS 32-33 (N = PS linkage, left out); 3'-inverted dT 35]
# B2: AMX86-D5 (ssRNA)
# RNA: GGGAAAAGCGAAUCAUACACAAGAGAGGUAUGUGGUUUUGCGGAGCAACUCGUGUCAGCGGUCAGCUCCGCCAGAGACCAACCGAGAA
# modifications: 2'-F all C and U (rRfY)
# B3: AMX84-A10 (ssRNA)
# RNA: GGGAAAAGCGAAUCAUACACAAGAAGUUUUUUGUGCUCUGAGUACUCAGCGUCCGUAAGGGAUAUGCUCCGCCAGAGACCAACCGAGAA
# modifications: 2'-F all C and U (rRfY)
# B4: AMX84-F11 (ssRNA)
# RNA: GGGAAAAGCGAAUCAUACACAAGAUGUGCUUGAGUUAAAUCUCAUCGUCCCCGUUUGGGGAUAUGCUCCGCCAGAGACCAACCGAGAA
# modifications: 2'-F all C and U (rRfY)
# B5: AMX86-D6 (ssRNA)
# RNA: GGGAAAAGCGAAUCAUACACAAGAUUAGGCGUCGUGACAAUAACUGGUCCACGAGCAUGUCAGUGCUCCGCCAGAGACCAACCGAGAA
# modifications: 2'-F all C and U (rRfY)
# B6: AMX84-B10 (ssRNA)
# RNA: GGGAAAAGCGAAUCAUACACAAGAAGUGCUUCAUGCGGCAAACUGCAUGACGUCGAAUAGAUAUGCUCCGCCAGAGACCAACCGAGAA
# modifications: 2'-F all C and U (rRfY)
# B7: ARC1633 (ssRNA)
# RNA: GGAGCGCACUCAGCCACAGCUCGGUGGCUUAAUAUCUAUGUGAACGUGCGCAACAGCUUUCGACCUCUCUGCUAGC
# modifications: 2'-F C,U
# B8: ARC1628 (ssRNA)
# RNA: GGAGCGCACUCAGCCACAGGUGGCUUAAUACUGUAAAGACGUGCGCGCAGAGGGAUUUUCGACCUCUCUGCUAGC
# modifications: 2'-F C,U
# B9: ARC1634 (ssRNA)
# RNA: GGAGCGCACUCAGCCACCUUGGGCUUAAUACCUAUCGGAUGUGCGCCUAGCACGGAAUUUCGACCUCUCUGCUAGC
# modifications: 2'-F C,U
# B10: ARC1632 (ssRNA)
# RNA: GGAGCGCACUCAGCCACCGGCUUAAUAUCCAAUAGGAACGUUCGCUCUGAGCAGGCGUUUCGACCUCUCUGCUAGC
# modifications: 2'-F C,U
# B11: dRmY clone SEQ 93 (mixed)
# RNA: GGGAGAGGAGAGAACGUUCUACGUAACGGGGUGGGAGGGGCGAACAACUUGACGCUGUCGAUCGAUCGAUCGAUG
# modifications: 2'-deoxy A and G, 2'-OMe C and U (dRmY)
# B12: dRmY clone SEQ 96 (mixed)
# RNA: GGGAGAGGAGAGAACGUUCUACACGGGGUGGGAGGGGCGAGUCGCAUGGAUGCGCUGUCGAUCGAUCGAUCGAUG
# modifications: 2'-deoxy A and G, 2'-OMe C and U (dRmY)
# B13: dRmY clone SEQ 95 (mixed)
# RNA: GGGAGAGGAGAGAACGUUCUACGGGCUACGGGGAUGGAGGGUGGGUCCCAGACGCUGUCGAUCGAUCGAUCGAUG
# modifications: 2'-deoxy A and G, 2'-OMe C and U (dRmY)
# Target: T2, IL-23 (human, p19/p40 heterodimer) (Homo sapiens, UniProt Q9NPF7;P29460 SEQ:20-189,SEQ:23-328)
# T2 sequence (Q9NPF7 20-189, chain 1 of 2): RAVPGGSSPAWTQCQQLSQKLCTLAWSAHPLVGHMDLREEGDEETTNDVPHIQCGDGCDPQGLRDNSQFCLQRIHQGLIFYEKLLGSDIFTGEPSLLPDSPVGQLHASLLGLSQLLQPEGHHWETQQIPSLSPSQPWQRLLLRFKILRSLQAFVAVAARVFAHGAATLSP
# T2 sequence (P29460 23-328, chain 2 of 2): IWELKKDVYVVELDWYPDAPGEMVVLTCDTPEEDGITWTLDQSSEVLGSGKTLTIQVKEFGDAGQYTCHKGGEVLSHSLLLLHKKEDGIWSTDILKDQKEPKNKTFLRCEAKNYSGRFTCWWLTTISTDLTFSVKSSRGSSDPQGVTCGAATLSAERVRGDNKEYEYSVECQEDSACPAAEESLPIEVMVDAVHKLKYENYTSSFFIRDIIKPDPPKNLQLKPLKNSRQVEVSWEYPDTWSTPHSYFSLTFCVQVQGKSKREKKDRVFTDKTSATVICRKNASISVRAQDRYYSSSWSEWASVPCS
# Assay: cell_activity; Pathscan pSTAT3
# Conditions: tags: R&D Systems, carrier free
# Experimental: Inhibition of IL-23-induced STAT3 phosphorylation was measured using the Pathscan® Phospho-STAT3 (Tyr705) Sandwich ELISA Kit (Cell Signaling Technology, Beverly, Mass.).
# Similar to the TransAM™ Assay method previously described, the Pathscan® Phospho-STAT3 (Tyr705) Sandwich ELISA Kit detects endogenous levels of Phospho-STAT3 (Tyr705) protein by using a STAT3 rabbit monoclonal antibody which has been coated onto the wells of a 96-well plate. After incubation with cell lysates, both nonphospho- and phospho-STAT3 proteins are captured by the coated antibody. A phospho-STAT3 mouse monoclonal antibody is added to detect the captured phospho-STAT3 protein, and an HRP-linked anti-mouse antibody is then used to recognize the bound detection antibody. HRP substrate, TMB, is added to develop color, and the magnitude of optical density for this developed color is proportional to the quantity of phospho-STAT3 protein.
# PHA Blasts were isolated and prepared as described above and treated with hIL-23 at a final constant concentration of 6 ng/mL (R&D Systems, Minneapolis, Minn.) to induce STAT3 activation, instead of using 3 ng/mL as previously described with the TransAM™ assay. Clones were screened by using a 6-point […] titration from 0 to 700 nM in 3 fold dilutions in combination with a constant IL-23 concentration of 6 ng/mL of IL-23 (R&D Systems, Minneapolis, Minn.) to induce STAT3 activation, instead of using 3 ng/mL as previously described with the TransAM™ assay. Lysates of treated cells were prepared using the buffers provided by the Pathscan kit, and the assay was run according to the manufacturer's instructions. IC₅₀s for the full length clones were calculated from the dose response curves.
row,Binder,IC50 [nM]
1,B1,4

# Target: IL-12 (human, p35/p40 heterodimer) (Homo sapiens, UniProt P29459;P29460 SEQ:57-253,SEQ:23-328)
# Sequence (P29459 23-219, chain 1 of 2): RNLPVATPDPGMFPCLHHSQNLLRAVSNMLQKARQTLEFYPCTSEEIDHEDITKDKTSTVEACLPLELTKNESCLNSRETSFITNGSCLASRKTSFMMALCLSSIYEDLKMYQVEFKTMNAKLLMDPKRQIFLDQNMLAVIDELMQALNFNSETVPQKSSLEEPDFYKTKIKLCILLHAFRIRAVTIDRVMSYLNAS
# Sequence (P29460 23-328, chain 2 of 2): as the sequence (P29460 23-328, chain 2 of 2) above
# Assay: filter; no significant binding; 1X SHMCK, 0.1 mg/mL tRNA
# Conditions: label: 5'-32P
# Experimental: (§1) Monitoring Progress of rRfY Selection. Dot blot binding assays were performed throughout the selections to monitor the protein binding affinity of the pools. Trace ³²P-labeled RNA was combined with a dilution series of h-IL-23 and incubated at room temperature for 30 minutes in 1×SHMCK (20 mM Hepes, 120 mM NaCl, 5 mM KCl, 1 mM MgCl₂, 1 mM CaCl₂, pH 7.4) plus 0.1 mg/mL tRNA for a final volume of 20 μL. The binding reactions were analyzed by nitrocellulose filtration using a Minifold I dot-blot, 96-well vacuum filtration manifold (Schleicher & Schuell, Keene, N.H.). A three-layer filtration medium was used, consisting (from top to bottom) of Protran nitrocellulose (Schleicher & Schuell), Hybond-P nylon (Amersham Biosciences) and GB002 gel blot paper (Schleicher & Schuell). RNA that is bound to protein is captured on the nitrocellulose filter, whereas the non-protein bound RNA is captured on the nylon filter. The gel blot paper was included simply as a supporting medium for the other filters. Following filtration, the filter layers were separated, dried and exposed on a phosphor screen (Amersham Biosciences, Piscataway, N.J.) and quantified using a Storm 860 Phosphorimager® blot imaging system (Amersham Biosciences).
# (§2) When a significant positive ratio of binding of RNA in the presence of h-IL-23 versus in the absence of h-IL-23 was seen, the pools were cloned using a TOPO TA cloning kit (Invitrogen, Carlsbad, Calif.) according to the manufacturer's instructions. For the h-IL-23 and X-IL-23 selections, the Round 8 pool templates were cloned, and 32 individual clones from each selections were assayed in a 1-point dot blot screen (+/−75 nM h-IL-23, as well as a separate screen at +/−75 nM h-IL-12). For the PN-IL-23 selection, the Round 10 pool was cloned and sequenced, and 8 unique clones were assayed for protein binding in a 1-point dot blot screen (+/−200 nM h-IL-23 and a separate screen at +/−200 nM h-IL-12). Subsequently, the Round 10 PN-IL-23 pool was re-cloned for further sequences, as well as the R12 PN-IL-23 pool, and the clones were assayed for protein binding in a 1 point do blot screen (+/−100 nM h-IL-23 or +/−200 nM h-IL-12).
row,Binder,binding result
1,B2,no binding
2,B3,no binding
3,B4,no binding
4,B5,no binding
5,B6,no binding

# Target: T1, IL-23 (mouse, p19/p40 heterodimer)
# Assay: cell_activity; TransAM STAT3
# Conditions: tags: isolated in-house
# Experimental: In summary, the cell-based assay was conducted by isolating the peripheral blood mononuclear cells (PBMCs) from whole blood using a Histopaque gradient (Sigma, St. Louis, Mo.). The PBMCs were cultured for 3 to 5 days at 37° C./5% CO₂ in Peripheral Blood Medium (Sigma) which contains PHA, supplemented with IL-2 (100 units/mL) (R&D Systems, Minneapolis, Minn.), to generate PHA Blasts. To test IL-23 aptamers, the PHA Blasts were washed twice with 1×PBS, then serum starved for four hours in RPMI, 0.20% FBS. After serum starvation, approximately 2 million cells were aliquotted into appropriately labeled eppendorf tubes. hIL-23 at a final constant concentration of 3 ng/mL (R&D Systems, Minneapolis, Minn.) was combined with a dilution series of various IL-23 aptamers as described in Example 1, and the cytokine/aptamer mixture was added to the aliquotted cells in a final volume of 100 μl and incubated at 37° C. for 10-12 minutes. The incubation reaction was stopped by adding 1 mL of ice-cold PBS with 1.5 mM Na₃VO₄. Cell lysates were made using the lysis buffer provided by the TransAM™ STAT 3 assay following the manufacturer's instructions. FIG. 20 depicts a flow summary of the protocol used for the cell based assay.
# The protocol used was identical to that previously described except mouse IL-23 was used to induce STAT 3 activation in PHA Blasts at a concentration of 30 ng/mL, instead of using human IL-23 at a concentration of 3 ng/mL.
row,Binder,IC50 [nM]
1,B7,31
2,"GGGCACUCAGCCACAGGUGGCUUAAUACUGUAAAGACGUGCCC (ssRNA, 2'-F C,U) [ARC1739 (ARC1628 minimer)]",18
3,B8,37
4,"GGGCACUCAGCCACCUUGGGCUUAAUACCUAUCGGAUGUGCCC (ssRNA, 2'-F C,U) [ARC1634 minimer]",26
5,B9,9
6,B10,18
7,"GGGCACUCAGCCACAGCUCGGUGGCUUAAUAUCUAUGUGAACGUGCCC (ssRNA, 2'-F C,U) [ARC1633 minimer]",7

# Target: T2, IL-23 (human, p19/p40 heterodimer)
# Assay: filter; 1X SHMCK, 1 mM Mg, 1 mM Ca, 0.1 mg/mL tRNA, RT
# Conditions: tags: R&D Systems, carrier free; label: 5'-32P
# Experimental: as §1, §2
row,Binder,Kd [nM]
1,B2,27.4
2,B3,22.3
3,B4,16.6
4,B5,25
5,B6,21.8

# Target: T2, IL-23 (human, p19/p40 heterodimer)
# Assay: filter; no binding
# Conditions: tags: R&D Systems, carrier free
# Description: The fraction aptamer bound vs. [IL-23] was used to calculate the KD by fitting the following equation to the data: Fraction aptamer bound=amplitude*([IL-23]/(KD+[IL-23]))+background binding.
# Table 25 below summarizes the minimized sequences and the parent clone from which they were derived, and Table 26 summarizes the binding characterization from direct binding assays (+/−tRNA) and competition binding assays for the minimized constructs tested.
row,Binder,binding result
1,"GGCGGUACGGGGGGAGUGGGCUGGG (mixed, deoxy A,G; 2'-OMe C,U) [ARC1170]",no binding
2,"GGCGGUACGGGGAGUGUGGGUUGGG (mixed, deoxy A,G; 2'-OMe C,U) [ARC1171]",no binding
3,"ACAGGCAAGGUAAUUGGGUAGUGAGGGCUGGGUGU (mixed, deoxy A,G; 2'-OMe C,U) [ARC896]",no binding

# Same assay, conditions: tags: R&D Systems, carrier free; label: 5'-32P
row,Binder,binding result
1,"GGCGGUUACGGGGGAUGCGGGUGGG (mixed, 2'-deoxy A and G, 2'-OMe C and U (dRmY)) [ARC981]",no binding
2,"GGCAAGGUAAUUGGGAAGUGUGGGCUGGG (mixed, 2'-deoxy A and G, 2'-OMe C and U (dRmY)) [ARC894]",no binding

# Target: T2, IL-23 (human, p19/p40 heterodimer)
# Assay: filter; 1X PBS, tRNA, ssDNA, BSA, 30 min RT
# Conditions: tags: R&D Systems, carrier free; label: 32P
row,Binder,Kd [nM]
1,B11,186
2,B12,210
3,B13,433
